T1: Boi1 SH3 (BOI1_YEAST), P38041
T1 chain: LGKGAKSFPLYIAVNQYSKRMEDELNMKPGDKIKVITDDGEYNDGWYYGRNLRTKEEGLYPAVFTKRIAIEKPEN

T2: Boi2 SH3 (BOI2_YEAST), P39969
T2 chain: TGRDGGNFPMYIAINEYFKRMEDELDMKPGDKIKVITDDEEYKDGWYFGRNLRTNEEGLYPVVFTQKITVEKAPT

T3: Rvs167 SH3 (RV167_YEAST), P39743
T3 chain: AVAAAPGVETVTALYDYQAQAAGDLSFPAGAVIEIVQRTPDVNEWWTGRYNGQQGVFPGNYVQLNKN

T4: Yhr016c SH3 (YSC84_YEAST), P32793
T4 chain: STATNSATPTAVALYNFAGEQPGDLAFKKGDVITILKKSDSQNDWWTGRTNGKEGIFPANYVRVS

T5: Yfr024 SH3 (LSB3_YEAST), P43603
T5 chain: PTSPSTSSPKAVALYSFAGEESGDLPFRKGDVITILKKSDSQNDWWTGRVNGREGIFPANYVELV

T6: Myo5 SH3 (MYO5_YEAST), Q04439
T6 chain: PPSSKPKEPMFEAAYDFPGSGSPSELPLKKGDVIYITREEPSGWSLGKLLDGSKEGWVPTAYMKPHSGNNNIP


How the values were obtained:
Test in all cases: SPOT array
[1] = biological target: T1, Boi1 SH3 (BOI1_YEAST), P38041
[2] = biological target: T2, Boi2 SH3 (BOI2_YEAST), P39969
[3] = biological target: T3, Rvs167 SH3 (RV167_YEAST), P39743
[4] = biological target: T4, Yhr016c SH3 (YSC84_YEAST), P32793
[5] = biological target: T5, Yfr024 SH3 (LSB3_YEAST), P43603
[6] = biological target: T6, Myo5 SH3 (MYO5_YEAST), Q04439
[7] = biological target: Sho1 SH3 (SHO1_YEAST), P40073
Sequence of Sho1 SH3 (SHO1_YEAST), P40073 (P40073 295-366): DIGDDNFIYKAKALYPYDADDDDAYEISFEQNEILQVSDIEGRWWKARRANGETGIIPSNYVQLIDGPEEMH

Binder	normalised SPOT signal, Boehringer light units (BLU); mean over the file's lines of this peptide [1]	normalised SPOT signal, Boehringer light units (BLU); mean over the file's lines of this peptide [2]	normalised SPOT signal, Boehringer light units (BLU); mean over the file's lines of this peptide [3]	normalised SPOT signal, Boehringer light units (BLU); mean over the file's lines of this peptide [4]	normalised SPOT signal, Boehringer light units (BLU); mean over the file's lines of this peptide [5]	normalised SPOT signal, Boehringer light units (BLU); mean over the file's lines of this peptide [6]	normalised SPOT signal, Boehringer light units (BLU); mean over the file's lines of this peptide [7]
PSSKKNKPNPPPGS [YJL056C 176-189]	571	0.8	40.5	28	49.2	107	72.1
PYMYKYLPRFPNLK [YPL137C 764-777]	177	991	920	432	1150	382	1590
PTVQKFSPHPPTTL [YER144C 362-375]	58	14.5	20.8	16	10.2	213	44.4
PVPVRMQPQPPQPM [YBR108W 383-396]	93.8	85.6	70.5	145	1650	188	71.7
PTANKYAPVSPTVQ [YPL085W 797-810]	168	27.4	93.3	11.2	0	191	37.8
PSAMKLVPSIPPAT [YBR154C 118-131]	89.4	21.6	45.4	63.3	251	561	42.6
PSRSKSNPILPIMR [YLR319C 684-697]	196	25.1	246	70.1	1260	523	98.4

Next, values leading:

normalised SPOT signal, Boehringer light units (BLU); mean over the file's lines of this peptide [1]	normalised SPOT signal, Boehringer light units (BLU); mean over the file's lines of this peptide [2]	normalised SPOT signal, Boehringer light units (BLU); mean over the file's lines of this peptide [3]	normalised SPOT signal, Boehringer light units (BLU); mean over the file's lines of this peptide [4]	normalised SPOT signal, Boehringer light units (BLU); mean over the file's lines of this peptide [5]	normalised SPOT signal, Boehringer light units (BLU); mean over the file's lines of this peptide [6]	normalised SPOT signal, Boehringer light units (BLU); mean over the file's lines of this peptide [7]	Binder
350	743	3750	6220	15700	3260	121	PQTMRQAPKRPDAD [YNL298W 493-506]
188	8.5	27.8	11.3	100	175	65.2	PSHYRNIPYNPATF [YBR194W 90-103]
93.5	40.8	52	8.5	65.5	289	79.1	PSSHKRKPVIPWDA [YNL295W 201-214]
2030	35.9	10400	1380	15900	1470	28200	PVRSRVLPATPRQI [YKL086W 103-116]
3740	4.1	53800	50100	36200	186	31600	PQQNRPLPQLPNRN [YOR181W 307-320]
84.3	17.2	49.7	37.5	157	413	57.4	PRSKKKKPAPPTLL [YMR039C 165-178]

Reference: article PMC314469, “Protein Interaction Networks by Proteome Peptide Scanning” (PLoS Biology, 2004)
